17 molecules from patent US20190359712A1 (Daiichi Sankyo, published 2019) can be followed below.

What is called Kd is the equilibrium constant for the complex coming apart.

To fix the notation:
T1: recombinant human TROP-2/human IgG Fc fused form (R&D Systems, Inc.) (human, UniProt P09758 27-274, limits assumed)
T1 construct: Bought reagent; also called TROP-2/Fc; not shown: human IgG Fc
T1 sequence (looked up): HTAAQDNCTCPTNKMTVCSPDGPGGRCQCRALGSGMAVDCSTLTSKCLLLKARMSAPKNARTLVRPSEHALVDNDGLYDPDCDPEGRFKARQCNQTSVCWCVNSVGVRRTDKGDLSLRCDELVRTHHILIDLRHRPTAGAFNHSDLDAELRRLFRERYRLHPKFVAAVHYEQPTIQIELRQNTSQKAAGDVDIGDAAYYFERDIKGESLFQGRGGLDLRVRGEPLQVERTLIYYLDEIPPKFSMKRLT

B1: C3E-7085 (CDR modified humanized anti-CD3 scFv) (scFv)
scFv: GEVQLVESGGGLVQPGGSLRLSCAASGVTFNYYGMSWIRQAPGKGLEWVASITRSGGRIYYPDSVKGRFTISRENTQKTLYLQMNSLRAEDTAVYYCTLDGRDGWVAYWGQGTLVTVSSGGGGSGGGGSGGGGSNFMLTQPSSVSGVPGQRVTISCTGNTGNIGSNYVNWYQQLPGTAPKLLIYRDDKRPSGVPDRFSGSKSGTSASLAITGFQAEDEADYYCQSYSSGFIFGGGTKLTVLGAAAGAGGDYKDDDDKGAAAHHHHHH
notes: C3E-7036 with arginine for asparagine at position 53 of the VH; the change is already in the entry
B2: C3E-7078 (CDR modified humanized anti-CD3 scFv) (scFv)
scFv: GEVQLVESGGGLVQPGGSLRLSCAASGVTFNYYGMSWIRQAPGKGLEWVASITRSGGRIYYPDSVKGRFTISRENTQKTLYLQMNSLRAEDTAVYYCTLDGRDGWVAYWGQGTLVTVSSGGGGSGGGGSGGGGSNFMLTQPHSVSESPGKTVTISCKRNTGNIGSNYVNWYQQHEGSSPTTIIYRDDKRPDGVSDRFSGSIDRSSKSASLTISNLKTEDEADYFCQSYSSGFIFGGGTKLTVLGAAAGAGGDYKDDDDKGAAAHHHHHH
notes: the change is already in the entry
B3: C3E-7091 (CDR modified humanized anti-CD3 scFv) (scFv)
scFv: B2 scFv with R54S, D186G
notes: C3E-7079 with glycine for aspartic acid at position 52 of the VL; the change is already in the entry
B4: C3E-7090 (CDR modified humanized anti-CD3 scFv) (scFv)
scFv: B2 scFv with D186A
notes: C3E-7078 with alanine for aspartic acid at position 52 of the VL; the change is already in the entry
B5: C3E-7086 (CDR modified humanized anti-CD3 scFv) (scFv)
scFv: B2 scFv with D186G
notes: C3E-7078 with glycine for aspartic acid at position 52 of the VL; the change is already in the entry
B6: C3E-7079 (CDR modified humanized anti-CD3 scFv) (scFv)
scFv: B2 scFv with R54S
notes: as for B2
B7: C3E-7087 (CDR modified humanized anti-CD3 scFv) (scFv)
scFv: B2 scFv with D186Q
notes: C3E-7078 with glutamine for aspartic acid at position 52 of the VL; the change is already in the entry
B8: C3E-7092 (CDR modified humanized anti-CD3 scFv) (scFv)
scFv: B2 scFv with R54S, D186Q
notes: C3E-7079 with glutamine for aspartic acid at position 52 of the VL; the change is already in the entry
B9: C3E-7095 (CDR modified humanized anti-CD3 scFv) (scFv)
scFv: B2 scFv with R54S, D186A
notes: C3E-7079 with alanine for aspartic acid at position 52 of the VL; the change is already in the entry
B10: C3E-7094 (CDR modified humanized anti-CD3 scFv) (scFv)
scFv: B2 scFv with R54S, D186S
notes: C3E-7079 with serine for aspartic acid at position 52 of the VL; the change is already in the entry
B11: C3E-7093 (CDR modified humanized anti-CD3 scFv) (scFv)
scFv: B2 scFv with R54S, D186N
notes: C3E-7079 with asparagine for aspartic acid at position 52 of the VL; the change is already in the entry
B12: C3E-7088 (CDR modified humanized anti-CD3 scFv) (scFv)
scFv: B2 scFv with D186N
notes: C3E-7078 with asparagine for aspartic acid at position 52 of the VL; the change is already in the entry
B13: C3E-7089 (CDR modified humanized anti-CD3 scFv) (scFv)
scFv: B2 scFv with D186S
notes: C3E-7078 with serine for aspartic acid at position 52 of the VL; the change is already in the entry
B14: C3E-7036 (humanized anti-CD3 scFv) (scFv)
scFv: B1 scFv with R54N
B15: C3E-7035 (humanized anti-CD3 scFv) (scFv)
scFv: GEVQLVESGGGLVQPGGSLRLSCAASGVTFNYYGMSWIRQAPGKGLEWVASITNSGGRIYYPDSVKGRFTISRENTQKTLYLQMNSLRAEDTAVYYCTLDGRDGWVAYWGQGTLVTVSSGGGGSGGGGSGGGGSMAQAVLTQPSSVSGVPGQRVTISCKRNTGNIGSNYVNWYQQLPGTAPKLLIYRDDKRPSGVPDRFSGSKSGTSASLAITGFQAEDEADYYCQSYSSGFIFGGGTKLTVLGAAAGAGGDYKDDDDKGAAAHHHHHH
B16: C3E-3007 scFv (humanized OKT3 scFv) (scFv)
scFv: QVQLVQSGAESKKPGASVKVSCKASGYTFTRYTMHWVRQAPGQGLEWMGYINPSRGYTNYNQKFKDRVTITADKSTSTAYMELSSLRSEDTAVYYCARYYDDHYCLDYWGQGTLVTVSSGGGGSGGGGSGGGGSQIQMTQSPSSLAVSLGERATITCSASSSVSYMNWYQQKPGKAPKRWIYDTSKLASGVPDRFSGSGSGTDFTLTISSLQAEDVATYYCQQWSSNPFTFGQGTKVEIKRGASAAAGSGGDYKDDDDKGAAAHHHHHH
B17: T2C-0006 (HT1-11 scFv/C3E-7036 bispecific molecule) (bispecific antibody)
chain: GQVQLVQSGAEVKKPGASVKVSCKASGYTFTTAGMQWVRQAPGQGLEWMGWINTHSGVPKYAEDFKGRVTISADTSTSTAYLQLSSLKSEDTAVYYCARSGFGSSYWYFDVWGQGTLVTVSSGGGGSGGGGSGGGGSDIQMTQSPSSLSASVGDRVTITCKASQDVSTAVAWYQQKPGKAPKLLIYSASYRYTGVPSRFSGSGSGTDFTLTISSLQPEDFAVYYCQQHYITPLTFGQGTKLEIKRTGGGGSEVQLVESGGGLVQPGGSLRLSCAASGVTFNYYGMSWIRQAPGKGLEWVASITNSGGRIYYPDSVKGRFTISRENTQKTLYLQMNSLRAEDTAVYYCTLDGRDGWVAYWGQGTLVTVSSGGGGSGGGGSGGGGSNFMLTQPSSVSGVPGQRVTISCTGNTGNIGSNYVNWYQQLPGTAPKLLIYRDDKRPSGVPDRFSGSKSGTSASLAITGFQAEDEADYYCQSYSSGFIFGGGTKLTVLGAAAGAGGDYKDDDDKGAAAHHHHHH
notes: Tandem scFv; also called anti-TROP2-CD3 bispecific molecule

Positions count from the first letter of the chain named. In names and notes the source's numbering stands.

One experiment concerns the target T2, human CD3 on human PBMC (human, UniProt P07766 23-207).
T2 construct: Native CD3 complex on T cells in PBMC; the other chains of the complex are native; also called human CD3 (PBMC)
Description: flow cytometry on human PBMC. In general terms: Flow cytometry measures light scatter and fluorescence of single cells or particles in a stream.
B1: the binding result is “binds”.
On the same count and under the same terms, to B2 belongs “binds”; to B3, “binds”; to B4, “binds”.
Same read-out and setting: to B5 belongs “binds”.
On the same count and under the same terms, to B6 belongs “binds”; to B7, “binds”; to B8, “binds”.
As for B9, the binding result is “binds”.
Same read-out and setting: in the case of B10 it was “binds”.
The same measure, in the same setting: to B11 belongs “binds”; to B12, “binds”; to B13, “binds”.

In the next experiment the target is T3, cynomolgus monkey CD3 on cynomolgus monkey PBMC or T cell line HSC-F (cynomolgus monkey, UniProt Q95LI5 22-198).
T3 construct: whole, on cells; Native CD3 complex on monkey T cells; also called cynomolgus monkey CD3 (PBMC); cynomolgus monkey CD3 antigen
T3 sequence (Q95LI5 22-198): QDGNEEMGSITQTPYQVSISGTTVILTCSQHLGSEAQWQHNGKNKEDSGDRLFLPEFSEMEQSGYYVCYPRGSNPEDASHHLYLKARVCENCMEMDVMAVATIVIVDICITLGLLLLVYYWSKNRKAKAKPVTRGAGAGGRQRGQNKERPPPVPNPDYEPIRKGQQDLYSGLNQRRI
In words: flow cytometry on cynomolgus monkey PBMC.
Take B14: the binding result is given as “binds”.
Same read-out and setting: in the case of B1 it was “binds”; in that of B15, “binds”.
On the same count and under the same terms, to B2 belongs “binds”; to B3, “binds”.
The same measure, in the same setting: to B4 belongs “binds”; to B5, “binds”.
Consider B6, for which the binding result is “binds”.
Still for that read-out and setting: in the case of B7 it was “binds”; in that of B8, “binds”; in that of B9, “binds”.
Same read-out and setting: in the case of B10 it was “binds”; in that of B11, “binds”.
Same read-out and setting: to B12 belongs “binds”; to B13, “binds”.

A further experiment concerns the target T2, human CD3 on human PBMC. Description: flow cytometry on human PBMC, Penta-His Alexa Fluor 488 detection (rMFI). Here is the method: Commercially available human PBMC (Cellular Technology Ltd. (CTL)) was adjusted to an appropriate concentration with PBS containing 5% FBS. LIVE/DEAD Fixable Near-IR Dead Cell Stain Kit (Thermo Fisher Scientific Inc.) and an anti-CD19 antibody (Beckman Coulter Inc.) were added to the cells, which were then left standing at 4° C. for 30 minutes. The cells were washed twice with PBS containing 5% FBS, then adjusted to a concentration of 1×10⁶ cells/mL with PBS containing 5% FBS, added at a concentration of 100 μL/well to a 96-well U-bottomed microplate, and centrifuged to remove a supernatant. […] The cells were washed twice with PBS containing 5% FBS. Then, Penta-His Alexa Fluor 488 (Qiagen N.V.) diluted with PBS containing 5% FBS was added at a concentration of 30 μL/well, and the plate was left standing at 4° C. for 30 minutes. The cells were washed twice with PBS containing 5% FBS and then resuspended in PBS containing 5% FBS, followed by detection using a flow cytometer (FACSCanto™ II; Becton, Dickinson and Company). The data was analyzed using Flowjo (Tree Star Inc.). The mean fluorescence intensity (MFI) of Alexa Fluor 488 in a fraction free of dead cells and CD19-positive cells was calculated. The MFI value of the scFv-unsupplemented sample was subtracted from the MFI value of the scFv-supplemented sample to calculate a relative value of MFI (rMFI).
Regarding B16, the binding result is listed as “binds”.
In the case of B14, the binding result was “binds”.
For the molecule B15, the binding result is “binds”.

For the next experiment, the target named is T3, cynomolgus monkey CD3 on cynomolgus …. Description: flow cytometry on cynomolgus monkey PBMC, Penta-His Alexa Fluor 488 detection, rMFI.
Turning to B17, the binding result was “binds”.

A further experiment concerns the target T4, CD3 immobilized on a sensor chip (Example 7)-1-2).
T4 construct: the text says only 'CD3 immobilized on a sensor chip'; also called human CD3
Description: SPR (BIAcore T-200), CD3 immobilized, scFv injected at five concentrations; concentration giving 1/2 Rmax. As for the experimental part: Five different concentrations of the scFv were injected into CD3 immobilized on a sensor chip. Rmax was estimated from the resulting response, and the antibody concentration that reached 1/2 thereof was defined as the dissociation constant of the scFv for CD3.
In general terms: SPR reads the build-up and loss of mass on a sensor chip optically.
Molecule B16 came in with a Kd of 400 nM.
On the same count and under the same terms, in the case of B14 it was 25 nM; in that of B15, 22 nM.

The target of a further experiment is T1, recombinant human TROP-2/human IgG Fc …. Description: SPR (BIAcore 3000), TROP-2/Fc captured on anti-human IgG(Fc), bispecific as analyte, 1:1 binding model. Here is the method:
The bispecific molecule was assayed for its binding to TROP2 using BIAcore 3000 (GE Healthcare Bio-Sciences Corp.) by the capture method, which involves capturing the antigen by an anti-human IgG antibody and assaying the bispecific molecule as an analyte. The antigen used was recombinant human TROP-2/human IgG Fc fused form (R&D Systems, Inc.). Approximately 2000 RU of the anti-human IgG(Fc) antibody (Human Antibody Capture Kit, GE Healthcare Bio-Sciences Corp.) was covalently bound to a sensor chip CM5 (GE Healthcare Bio-Sciences Corp.) by the amine coupling method. Similarly, this antibody was immobilized onto a reference cell. The running buffer used was HBS-P (10 mM HEPES (pH 7.4), 0.15 M NaCl, and 0.005% Surfactant P20). The bispecific molecule was prepared at a 2-fold dilution ratio from 200 nM to 1 nM. A 1 μg/ml solution of the antigen was added onto the anti-human IgG(Fc) antibody-immobilized chip for approximately […]. Then, each concentration of the bispecific molecule was added at a flow rate of 30 μl/min for 300 seconds. Subsequently, the dissociation phase was monitored for 600 seconds. A 3 M magnesium chloride solution was added as a regenerating solution for 30 seconds. The data was analyzed using the 1:1 binding model of analytical software (BIAevaluation software, version 4.1.1) to calculate an association rate constant (ka), a dissociation rate constant (kd), and a dissociation constant (KD; KD=kd/ka).
In the case of B17, the equilibrium dissociation constant (Kd) was found to be 9.3 nM.

Another experiment addresses T2, human CD3 on human PBMC. Description: flow cytometry on human PBMC (dead cells and CD19-positive cells excluded), Penta-His Alexa Fluor 488 detection, rMFI.
B17: the binding result is recorded as “binds”.
